The values that follow come from patent US10444224B2, “Method for RNA detection and quantification” (Cornell University, priority 2011, dated 2019).

Series [1] relates to endogenous SAM levels in living E. coli cells. As to the kind of experiment: Live cell imaging of SAM accumulation with the SAM sensor. The series is classed as cell-based. Conditions: 50 μg/ml methionine plus inhibitor (25 μM adenosine periodate or 2.5 μM MT-DADMe-ImmA). As to the method:
Expression of the SAM aptamer and intracellular imaging was performed as described above for the ADP sensor: BL21-A Star E. coli cells (Invitrogen) were transformed with 40 ng of plasmid DNA expressing the tRNA-sensor chimeras in pET28c under the control of a T7 promoter. Cells were plated, grown overnight and single colonies were picked for inoculation in LB-Kan. At OD600=0.4, 1 mM of IPTG was added to the culture and shaking was continued at 37° C. for more 2 hours. 100 μL of culture was then removed, spun down to pellet the culture, and resuspended in 2 mL of pH 6.0 M9 minimal media. A 200 μl aliquot of resuspended culture was then plated on PLL-coated 24-well glass-bottom dishes (MatTek) and incubated for 45 minutes at 37° C. Adherent cells were washed twice and then incubated with 200 μM DFHBI in pH 6.0 M9 minimal media for 2 hours at 37° C. Cells were then treated with methionine alone or methionine with inhibitors by adding 2 μl of a 100× stock of the compound to a final concentration of 50 μg/ml for L-methionine, 25 μM for adenosine periodate, and 2.5 μM for MT-DADMe-ImmA. Live fluorescence images were taken with a CoolSnap HQ2 CCD camera through a 60× oil objective mounted on a Nikon TE2000 microscope and analyzed with the NIS-Elements software. The filter set used was a sputter coated filter cube with excitation filter 470/40, dichroic mirror 495 (long pass) and emission filter 525/50 (Chroma Technology).
Cells transformed with SAM sensors were grown overnight in LB-Kan. Cultures were then diluted to OD600=0.1 in 200 mL LB-Kan and grown to OD600=0.4. Cells were then induced for 2 hours with 1 mM IPTG at 37° C. with constant shaking. The entire culture was centrifuged for 5 min at 1,000×g, pellets were resuspended and washed once with M9 media and then resuspended in […] of M9 media containing 200 μM DFHBI and divided into two samples. Methionine (50 μg/ml) or vehicle was then added to either sample and cultures were incubated between 32-37° C. 25 ml aliquots were removed from methionine- and vehicle-treated sample at each time point, centrifuged for 5 min at 1,000×g, and flash frozen in liquid nitrogen. Cells were thawed on ice and lysed by resuspending the pellet in 300 μl of cold 4% perchloric acid. Insoluble material was then pelleted by spinning at 1,000×g for 5 min and the supernatant was transferred to a dialysis spin column with a 10,000 molecular weight cut off (Amicon) and spun at 10,000×g for 10 min at 4° C. A portion of the flow through (50 μl) was then injected on a Zorbax C8 column (Agilent) on an Agilent 1100 HPLC. Samples were loaded and eluted for 15 min with an aqueous buffer containing 3.6% acetonitrile, 40 mM ammonium phosphate, and 5 mM sodium 1-heptanesulfonate which was brought to pH 5.0 with hydrochloric acid. After each sample was eluted, the column was washed with a gradient of 3.6-25% acetonitrile for 30 min prior to the next samples being injected. SAM standards were used to calibrate SAM levels measured using this assay.
Population analysis was carried out using NIS-Elements software. Individual cells in a captured field were manually traced as Region of Interests (ROIs) and tracked through the different time points of image capture. Fluorescence intensity was then calculated by dividing the total fluorescence by the area for each ROI, which gives the mean intensity per unit area. Fold increase in fluorescence over time is calculated as the ratio of mean intensity at a desired time point and at time zero. Values in fold increase in fluorescence over time are plotted as frequency distributions or further used in statistical analyses.

Series [2] is described as follows: Emission and excitation of aptamer-DFAME complexes. The note with it: aptamer with DFAME. The series is classed as physicochemical.
Series [3] is described as follows: Relative fluorescence of Spinach derivatives compared to Spinach. The note with it: same concentration of DFHBI in all samples. Format: biochemical. The source says: Further modifications to Spinach were made in the same manner as described in Example 3, supra. These included modifications to the central loop, the stem formed between 5′ and 3′ ends, as well as stem-loops 1, 2, and 3. FIG. 17 illustrates the RNA sequences and secondary structures of Spinach (SEQ ID NO: 10), and five derivatives thereof, which are designated Spinach-2 (SEQ ID NO: 12), Spinach-4 (SEQ ID NO: 13), Spinach-6 (SEQ ID NO: 14), Spinach-7 (SEQ ID NO: 15), and Spinach-13 (SEQ ID NO: 11). RNA structure is shown as predicted by Mfold web-based software (Zuker, “Mfold Web Server for Nucleic Acid Folding and Hybridization Prediction,” Nucl. Acids Res. 31(13): 3406-3415 (2003), which is hereby incorporated by reference in its entirety). Substitutions present in the derivatives, relative to Spinach, are shown with a box formed around the base.
FIG. 18 is a graph illustrating the relative fluorescence of the Spinach derivatives compared to Spinach. In all samples shown, the same concentration of DFHBI, the Spinach-binding fluorophore, was included. […] In contrast, modifications to the 5′ and 3′ stem formation, the central loop, and stem-loop 2 were either tolerated or led to much improved fluorescence.

Series [4] in a line: Emission and excitation of aptamer-DFHO complexes. Format: physicochemical. The note with it: aptamer with DFHO.
A short description of series [5]: Emission and excitation of aptamer-MFHO complexes. The series is classed as physicochemical. Conditions: aptamer with MFHO.
Series [6] in a line: Spinach-based RNA sensor fluorescence in response to GTP. The series is classed as biochemical.
Method: Dose-response curves for each sensor in response to the target metabolite were determined by measuring the increase in fluorescence as a function of increasing target concentration in the presence of a fixed concentration of RNA sensor (10-50 nM) and a fixed concentration of fluorophore (10 μM). Curves were determined using a nonlinear regression analysis in Prism software and matched by least squares fitting to a standard dose-response model for 1:1 complexation.
The optimal sensors were chosen based on their low fluorescence in the absence of metabolite and the relative increase in fluorescence upon binding to the metabolite.
The mark [7] stands for this setting: 0.1 μM RNA, 10 μM DFHBI, 1 mM competing molecule.

“Also recorded” adds a separate entry of the source.

For `CSC[C@H]1CN(Cc2c[nH]c3c(N)ncnc23)C[C@@H]1O` [MT-DADMe-ImmA, MT-DADMe-Immucillin-A], in series [1], the “effect on average SAM levels / accumulation versus vehicle” value was “large decrease in the average accumulation of SAM” and the “effect on inter-cell variability in SAM levels versus vehicle” value is “retained considerable variability in total SAM levels”. Besides, in series [1] (listed as Mt-DADMe-ImmA), the “effect on average SAM levels / accumulation versus vehicle” value is on record as “substantial reduction in average SAM accumulation levels; also recorded: much greater reduction in average SAM accumulation levels” and the “effect on inter-cell variability in SAM levels versus vehicle” value was “higher variability in SAM levels; also recorded: increased the variability in SAM levels”.

B1: SEQ ID NO: 58: RNA aptamer listed for fluorophore DFAME (nucleic acid)
chain: GGGAGACGCAACUGAAUGAAGCCUCCGUGCGACAUCAUGCGCGCGACUGCUUCGGCAGAGGUGGGUGGUGUGGAGGAGUAUCUGUCCGUAACUAGUCGCGUCAC
modifications: listed as RNA, further chemistry not given here
For B1, in series [2], the Em entry was “Em = 610 nm” and the Ex result is recorded as “Ex = 510 nm”.

B2: Spinach-2: derivative of Spinach (nucleic acid)
chain: GACGCGACCGAAUGAAAUGGUGAAGGACGGGUCCAGGUGUGGCUGCUUCGGCAGUGCAGCUUGUUGAGUAGAGUGUGAGCUCCGUAACUGGUCGCGUC
modifications: listed as RNA, chemistry not given here
Consider B2, for which the “relative fluorescence compared to Spinach” value (from here on “relative fluorescence”) in series [3] is “comparable fluorescence”.

B3: SEQ ID NO: 54: RNA aptamer listed for fluorophore DFHO (nucleic acid)
chain: GGGAGACGCAACUGAAUGAAGCGAGGAAGGAGGUCUGAGGAGGUCACUGCUUCGACAGUGGGGCGUUUUCCCUGGGGGUGUUGAUCCGUAACUAGUCGCGUCAC
modifications: listed as RNA, chemistry not given here
With B3, in series [4], the Em entry is listed as “Em = 545 nm” and the Ex result is on record as “Ex = 500 nm”.

B4: SEQ ID NO: 55: RNA aptamer listed for fluorophore MFHO (nucleic acid)
chain: B3 chain
modifications: listed as RNA, chemistry not given here
Regarding B4, in series [5], the Em result is reported as “Em = 430 nm” and the Ex entry is “Ex = 580 nm”.

B5: Spinach-4: derivative of Spinach (nucleic acid)
chain: GACGCGACCGAAUGAAAUGGUGAAGGACGGGUCCAGCUGCGGCUGCUUCGGCAGCCGCAGCUUGUUGAGUAGAGUGUGAGCUCCGUAACUGGUCGCGUC
modifications: listed as RNA, chemistry not given here
Turning to B5, the “relative fluorescence” value in series [3] is “enhanced fluorescence”.

B6: Spinach-13: derivative of Spinach (nucleic acid)
chain: GACGCGACCUAUGAAAUGGUGAAGGGACGGGUCCCAGCGGCUGCUUCGGCAGCCGCUGUUGAGUAGAGUGUGAGCUCCGUAACUGGUCGCGUC
modifications: listed as RNA, chemistry not given here
On to B6, for which the “relative fluorescence” value in series [3] is recorded as “greatly reduced fluorescence”.

B7: Spinach-6: derivative of Spinach (nucleic acid)
chain: GACGCGACCGAAUGAAAUGGUGAAGGACGGGUCCAGGUGUGGCUGCUUCGGCAGUGCAGCUUGUUGCGUCGAGUGUGAGCUCGACGUAACUGGUCGCGUC
modifications: listed as RNA, chemistry not given here
B7: the “relative fluorescence” value in series [3] is given as “greatly reduced fluorescence”.

B8: SEQ ID NO: 51: RNA aptamer listed for fluorophore DFHO (nucleic acid)
chain: GGGAGACGCAACUGAAUGAAGUUGGCCCAUGAUAGAAAGCAGGGUGCUGCUUCGGCAGUUGUCGGAGGGUGGGGGGAUUGACUAUCCGUAACUAGUCGCGUCAC
modifications: listed as RNA, chemistry not given here
Consider B8, for which, in series [4], the Em result is on record as “Em = 550 nm” and the Ex entry is on record as “Ex = 480 nm”.

B9: SEQ ID NO: 56: RNA aptamer listed for fluorophore MFHO (nucleic acid)
chain: GGGAGACGCAACUGAAUGAAUGAGUAUGAUGCACGGUUAAAAUCCACUGCUUCGGCAGGAGUUGCGUUAGGAGGGUCGGGAGUCUCCGUAACUAGUCGCGUCAC
modifications: listed as RNA, chemistry not given here
As to B9, in series [5], the Em entry is “Em = 570 nm” and the Ex result is given as “Ex = 550 nm”.

B10: GTP sensor: Spinach-based turn-on RNA sensor for GTP (nucleic acid)
chain: GACGCGACUGAAUGAAAUGGUGAAGGACGGGUCCAGCAGAAGAGCACGUAUACGCAAGCUUGUUGAGUAGAGUGUGAGCUCCGUAACUAGUCGCGUC
modifications: listed as RNA, chemistry not given here
Consider B10, for which, in series [6] (0.1 μM RNA, 10 μM DFHBI, 1 mM GTP, versus no GTP), the “increase in fluorescence in the presence of GTP” value is recorded as 15 fold. In series [6] (setting [7]), the “molecular discrimination: ATP” value is recorded as “Only baseline fluorescence”; the “molecular discrimination: GMP” value is “exhibits fluorescence, although to a lesser extent; also recorded: moderate preference for GTP over GMP”; the “molecular discrimination: cGMP and guanosine” value is on record as “minimal fluorescence; also recorded: tenfold less fluorescence”. Also, the EC50 in series [6] (predicted by curve fitting, read-out: half-maximal fluorescence (EC50), GTP) was 7.7 mM.

B11: SEQ ID NO: 52: RNA aptamer listed for fluorophore DFHO (nucleic acid)
chain: GGGCGACUCACUAUAGGGAGACGCAACUGAAUGAAGCGAAGAAGGAGGUCUGAGGAGGUCACUGCUUCGGCAGUGGGGCGUUUUCCCUGGGGGUGUUGAUCCGUAACUAGUCGCGUCAC
modifications: listed as RNA, chemistry not given here
B11: in series [4], the Em entry was “Em = 540 nm” and the Ex entry was “Ex = 490 nm”.

B12: SEQ ID NO: 53: RNA aptamer listed for fluorophore DFHO (nucleic acid)
chain: GGGAGACGCAACUGAAUGAAAGACCUGACGAGGGUGAAGCGGUUGUCUGCUUCGGCAGCAUUGAAAGGGUGGGGUGUAGGAUGGUCCGUAACUAGUCGCGUCAC
modifications: listed as RNA, chemistry not given here
Consider B12, for which, in series [4], the Em entry is “Em = 560 nm” and the Ex entry is recorded as “Ex = 520 nm”.

B13: SEQ ID NO: 57: RNA aptamer listed for fluorophore DFAME (nucleic acid)
chain: B12 chain
modifications: listed as RNA, further chemistry not given here
In the case of B13, in series [2], the Em entry was “Em = 570 nm” and the Ex result is recorded as “Ex = 620 nm”.

B14: Spinach-7: derivative of Spinach (nucleic acid)
chain: GACGCGACCGAAUGAAAUGGUGAAGGACGGGUCCAGCCGGCUGCUUCGGCAGCCGGCUUGUUGAGUAGAGUGUGAGCUCCGUAACUGGUCGCGUC
modifications: listed as RNA, chemistry not given here
Regarding B14, the “relative fluorescence” value in series [3] is given as “enhanced fluorescence”.
